Test results reported in patent publication US8414660B2, “Haloferax volcanii laccase and variants and fragments thereof” (University of Florida Research Foundation, Inc., priority 2009, dated 2013).
Values joined by “and” are separate entries in the source; they are usually repeats but may differ in a detail not shown here. Equal values may be shown once.

Columns and labels:
[1] = Laccase activity assay, oxidation of ABTS; assay type: biochemical
Source text: (§1) FIG. 6D-Thermostability of LccA.

[2] = Laccase activity assay, oxidation of DMP with copper sulfate; assay type: biochemical; settings: US02-purified LccA, standard conditions, CuSO4 added
Oxidation of bilirubin = assay type: biochemical; settings: US02-purified LccA
Oxidation of guaiacol = assay type: biochemical; settings: presence or absence of copper supplementation
[3] = Oxidation of ferrous ammonium sulfate; assay type: biochemical; settings: presence or absence of copper supplementation
[4] = Thermostability of LccA, residual SGZ oxidizing activity after pre-incubation; assay type: physicochemical
Method: as §1
LccA was fully active after 1 h at 55° C. and 5 h at 50° C., with a half-live of inactivation at 50° C. of 31.5 h (FIG. 6D). […] (Fernandes et al., 2007). Likewise, the recently studied recombinant RL 5 laccase from rumen metagenome has maximal activity at 60° C. and is fully stable at this temperature for 200 min (Beloqui et al., 2006). […] (Martins et al., 2002).

[5] = Salt tolerance of LccA, residual SGZ oxidizing activity after pre-incubation in NaCl; assay type: physicochemical; settings: 100 mM to at least 1.4 M NaCl, FIG. 6E
[6] = Effect of mixed organo-solvents on LccA stability, residual SGZ oxidizing activity; assay type: physicochemical; settings: 185 mM NaCl
Method: as §1
Commonly used water miscible organo-solvents (i.e., methanol, ethanol, dimethyl sulfoxide or DMSO and dimethylformamide or DMF) were examined for their compatibility with LccA stability and activity. […] LccA was relatively stable in all solvents examined, retaining nearly 75% of its activity after 24 h incubation in methanol or ethanol and over 50% of its activity after incubation in DMSO or DMF. The influence of water-miscible cosolvents on enzyme activity and stability has been examined for several fungal laccases (Rodakiewicz-Nowak et al., 1999; Robles et al., 2002; Milstein et al., 1993; Luterek et al., 1998; Cantarella et al., 2003). These prior studies coupled with the current findings reveal a wide-variety of laccases, including LccA, are stable and/or can support catalysis and conversion of phenolic substrates in water-organic mixed solvents. Since most of the substrates and mediators of laccases are insoluble or poorly soluble in water and the degree of polymerization of phenoxyl radicals is higher in aqueous media (Milstein et al., 1993), solvent stability is an important feature to consider in optimizing this group of enzymes.

[7] = Delignification of steam exploded sugarcane bagasse, total phenol by Folin-Ciocalteau
Method: Prior to enzymatic treatment, sugarcane bagasse was treated with 1% (v/v) phosphoric acid and steam exploded in a shotgun reactor at 190° C. for 10 min. The resultant bagasse was adjusted to pH 8.4 with 5M NaOH.
Stream exploded bagasse was delignified using the laccase, LccA, from H. volcanii US02. LccA was prepared for the delignification reaction by concentrating H. volcanii US02 culture supernatant 5-fold with ethanol precipitation and dialyzing the concentrate against 25 mM Tris buffer pH 8.4 supplemented with 200 mM NaCl (T buffer) with regenerated cellulose dialysis tubing (3500 Da molecular weight cut off; Thermo Scientific SnakeSkin Pleated Dialysis Tubing).
Bagasse samples were treated with LccA in a rotary shaker at 150 rpm with similar doses of heat killed LccA enzyme (HKE) as a control. Periodically clear supernatant obtained by centrifugation of small fraction of hydrolysate was used for total phenol estimation by Folin-Ciocalteau method (Singleton and Rossi, 1965). Optimal conditions were determined to be treatment with 3 Uml^1 LccA at 37° C. in T buffer at pH 8.4 for 3-6 h.

[8] = Laccase activity assay, oxidation of SGZ (syringaldazine); settings: for Km: read-out: Km, SGZ
Method: LccA (51 μg·ml^−1) activity was assayed at different temperatures (22° to 70° C.) in T buffer with 185 mM NaCl using SGZ (1 mM) as the substrate. […] LccA activity was assayed with SGZ (●) from pH 6 to 11 and with ABTS (◯) from pH 3 to 8 at 45° C. using following buffers: 100 mM sodium acetate for pH 3 to 6, 25 mM Tris-HCl for pH 7 to 10, and 25 mM glycine-NaOH for pH 11. Activity is expressed as percent relative to oxidation of ABTS at pH 6. […] Purified enzyme (50.6 μg·ml^−1) was pre-incubated in T buffer supplemented with 185 mM NaCl at temperatures from 37° to 70° C. for up to 60 h, as indicated. […] Activity is presented as percent relative to incubation on ice (37° C. (●), 45° C. (▪), 50° C. (▴), 55° C. (♦), 60° C. (◯), 65° C. (□) and 70° C. (Δ)); FIG. 6E-Salt tolerance of LccA protein. Purified enzyme (16.5 μg·ml^−1) was pre-incubated for 30 min in T buffer at pH 8.4 supplemented with different concentrations of NaCl (0 to 1.4 M) as indicated. Samples were diluted to a final concentration 4.12 μg·ml^−1 protein and 185 mM NaCl in T buffer and assayed for SGZ oxidizing activity under standard conditions. Residual activity was calculated as percent relative to incubation at 185 mM NaCl. […] Enzyme (7.5 μg·ml^−1) was incubated in T buffer with 185 mM NaCl in the presence and absence of 25% (v/v) solvent (DMSO, DMF, ethanol and methanol) at room temperature for 90 min (white bar), 3 h (grey bar) and 24 h (black bar). […] Activity is calculated as percent relative to incubation without solvent.
Enzyme activity was determined by change in absorbance, in triplicate, by UV/Visible-spectroscopy using a BioTek Synergy HT multi-detection microplate reader with a 96-well plate. Oxidation of substrate was monitored by absorbance increase (ABTS at 420 nm with ε=36,000 M^−1 cm^−1; SGZ at 526 nm with ε=65,000 M^−1 cm^−1; DMP at 468 nm with ε=49,000 M^−1 cm^−1; guaiacol at 436 nm with ε=26,600 M^−1 cm^−1; ferrous ammonium sulfate at 315 nm with ε=2,200 M^−1 cm^−1) or decrease (bilirubin at 440 nm with ε=56,300 M^−1 cm^−1). Standard assay conditions were 185 mM NaCl at 45° C. with the following buffers and substrate concentrations: 100 mM sodium acetate buffer at pH 6.0 for ABTS (at 5 mM), DMP (at 2 mM) and guaiacol (at 5 mM); 25 mM Tris-HCl buffer at pH 8.4 for SGZ (at 1 mM); and 200 mM Tris-HCl buffer at pH 8.4 for bilirubin (0.45 mM). Copper sulfate (1 mM) was included for assay of DMP oxidation. Oxidation of ferrous ammonium sulphate (1 mM) was monitored at 315 nm (ε=2,200 M^−1 cm^−1) with and without salt (185 mM NaCl) in 100 mM MES (morpholineethanesulfonic acid) buffer at pH 5 as well as 25 mM Tris-HCl buffer at pH 7.0 and 8.4. One unit of enzyme activity is defined as the amount of enzyme that oxidizes 1 μmol of substrate per min at standard conditions. […] Kinetic parameters (Km, Vmax, and kcat) were determined using the Michaelis-Menten equation. […] All assays and protein purifications were performed at least in triplicate.
To further evaluate the catalytic properties of LccA, the temperature, pH and salt optima of the purified enzyme were determined using SGZ and/or ABTS as substrates.

[9] = LccA from culture broth of Hfx. volcanii BS01
[10] = LccA from culture broth of Hfx. volcanii US02

B1: LccA: Haloferax volcanii laccase of the multicopper oxidase family, SEQ ID NO: 2, secreted glycoprotein purified from culture broth of strain US02 (protein, listed as Haloferax volcanii)
chain: MTDWSRRRFLQTGAALGIAGTLPQTTTEVSAASPTLEKFVQPLPIPSVREPDGQRDGADAYEIAVTEFTQQLHPDLPETTVWGFDGSYPGPTIEADAGSPVHVRFDNSGLPSEHLFPVDDRLGGTTAENHPGYDGPVPEVRTVTHFHGLELDPANDGQSDMWTSPGGVEGPRFDSAWQELPMEQGRTTSTYHDHTLGITRLNAYAGLLGLYSITTDAERELGLPSGDYDIPLLLQDKEFNDDGSLHYPEEFVSAFLGDTAVVNGAVWPYVEVEPRRYRFRILNGANHRSFDLQLESESGSGVPTMYQFAPGHGFLESVVPIGPNGDLDSLLLTPFERGELVVDFSDHAGETLTLANGADMGPELTDLVEFRVSDPSTPPEDASADPTSLSLPTPASYDESDARVTREMTLGTEVRNGLITHTLNGHVFGDEDAPVYPQLGATEIWELQNESGGRHPIHLHLVTFRVIGRGPDGTQPPDPNELGPKDTVRVDPGERVRILVTFEGYTGQFPWHCHMLEHEDNKMMIPFVVENPVADYANEENVVDATGLTDAVGDWRNETLETEVLLEVIDQWRSGDEVA
modifications: glycosylated
[1]; 45° C., FIG. 6C
  pH optimum, ABTS oxidation: 6.0
[1]; [9]
  Km: 700 µM
  kcat, ABTS: 10.0 s⁻¹
[1]; [10]
  Km: 671 µM
  kcat, ABTS: 9.9 s⁻¹
[1]; US02-purified LccA, standard conditions
  Specific activity, ABTS oxidation: 6.1±0.39 U·mg^−1
[2]
  Specific activity, DMP oxidation: 12.6±1.1 U·mg^−1
Oxidation of bilirubin
  Km: 236 µM
  kcat, bilirubin: 29 s⁻¹
Oxidation of bilirubin; standard conditions
  Specific activity, bilirubin oxidation: 25.5±1 U·mg^−1
Oxidation of guaiacol
  Oxidation of guaiacol: did not oxidize
[3]
  Oxidation of Fe^2+ (ferrous ammonium sulphate): did not oxidize
[4]; 37° C., 2½ days
  Activity retained after incubation: nearly all of its original activity
[4]; 1 h at 55° C.
  Activity after pre-incubation: fully active
[4]; 5 h at 50° C.
  Activity after pre-incubation: fully active
[5]
  Activity retained after incubation in NaCl: nearly all of its original activity
[6]; 25% (v/v) DMSO or DMF
  Activity retained after incubation in solvent: over 50%
[6]; 24 h, 25% (v/v) methanol or ethanol
  Activity retained after incubation in solvent: ~75%
[7]; 3 h of treatment, from 1473±10 before
  Phenol content after treatment: 1160±26 mg phenol per liter
[7]; 3 h of treatment, ~1 g dry weight bagasse in 15 ml T buffer
  Reduction in the phenol content: 21%
[7]; bagasse (~1 g dry weight equivalents) in 50 ml of T buffer
  Reduction in the phenol content: 38-43%
[8]; 45° C., FIG. 6C
  pH optimum, SGZ oxidization: 8.4
[8]; 55° C.
  Activity relative to temperature optimum: 67%
[8]; 60° C.
  Activity relative to temperature optimum: 48%
[8]; 65° C.
  Activity relative to temperature optimum: 35%
[8]; 70° C.
  Activity relative to temperature optimum: 15%
[8]; [9]
  kcat, SGZ: 19.4 s⁻¹
  Km: 67 µM
[8]; [10]
  kcat, SGZ: 21.7 s⁻¹
  Km: 35 µM
[8]; LccA purified from H. volcanii US02, fraction F2 (upper fraction), MonoQ 10/10
  Specific activity, SGZ oxidation: F2, 6.7 U · mg^−1
[8]; NaCl or KCl in T buffer at 45° C., FIG. 6B
  Salt concentration for optimal activity: ~200 mM
[8]; at ~200 mM salt
  Activity in KCl higher than in NaCl: 1.5 fold
[8]; improved purification protocol from H. volcanii US02, MonoQ 10/10 pH 8.4
  Specific activity, SGZ oxidation: 51.5 U·mg^−1
[8]; purified from culture broth of Hfx. volcanii SB01 (C-terminal StrepII tag), final MonoQ 10/10 pH 8.4
  Specific activity, SGZ oxidation: 1.3 U·mg^−1 and 1.34 U·mg^−1
[8]; room temperature (25° C.)
  Activity relative to temperature optimum: ~75%
